Columns and labels:
rhNKp30-his protein = rhNKp30-his protein (UniProt O14931); test: flow cytometry on cells; settings: 293T cells stably expressing B7-H6, stained with his-tagged NKp30; parent: est. 1.0; read off a plot
CHX chase, WB, U87 = settings: glycan lost; control: DMSO
CHX chase, WB, 293T = settings: glycan lost; control: DMSO
[1] = CHX chase, WB, stable 293T; settings: glycan lost; control: wild type
[2] = surface B7-H6 flow cytometry, HCT-116; settings: glycan lost; control: wild type
[3] = surface B7-H6 flow cytometry, HEK293T; settings: glycan lost; control: wild type
[4] = WB of TCA-precipitated supernatant, HEK293T; settings: glycan lost; control: wild type
[5] = WB of TCA-precipitated supernatant, HCT-116; settings: glycan lost; control: wild type

B7-H6, wild type, stably expressed on B7-H6 knockout 293T cells (from UniProt Q68D85) N411Q
ratio to parent (rhNKp30-his protein): 0.94

B1: B7-H6: tunicamycin (protein)
parent chain: MTWRAAASTCAALLILLWALTTEGDLKVEMMAGGTQITPLNDNVTIFCNIFYSQPLNITSMGITWFWKSLTFDKEVKVFEFFGDHQEAFRPGAIVSPWRLKSGDASLRLPGIQLEEAGEYRCEVVVTPLKAQGTVQLEVVASPASRLLLDQVGMKENEDKYMCESSGFYPEAINITWEKQTQKFPHPIEISEDVITGPTIKNMDGTFNVTSCLKLNSSQEDPGTVYQCVVRHASLHTPLRSNFTLTAARHSLSETEKTDNFSIHWWPISFIGVGLVLLIVLIPWKKICNKSSSAYTPLKCILKHWNSFDTQTLKKEHLIFFCTRAWPSYQLQDGEAWPPEGSVNINTIQQLDVFCRQEGKWSEVPYVQAFFALRDNPDLCQCCRIDPALLTVTSGKSIDDNSTKSEKQTPREHSDAVPDAPILPVSPIWEPPPATTSTTPVLSSQPPTLLLPLQ
degradation_or_half_life, half_life (CHX chase, WB, U87): decreases, 12.83 vs 27.14
degradation_or_half_life, half_life (CHX chase, WB, 293T): decreases, 17.36 vs 47.42

B2: B7-H6: N43Q (protein)
parent chain: MTWRAAASTCAALLILLWALTTEGDLKVEMMAGGTQITPLNDNVTIFCNIFYSQPLNITSMGITWFWKSLTFDKEVKVFEFFGDHQEAFRPGAIVSPWRLKSGDASLRLPGIQLEEAGEYRCEVVVTPLKAQGTVQLEVVASPASRLLLDQVGMKENEDKYMCESSGFYPEAINITWEKQTQKFPHPIEISEDVITGPTIKNMDGTFNVTSCLKLNSSQEDPGTVYQCVVRHASLHTPLRSNFTLTAARHSLSETEKTDNFSIHWWPISFIGVGLVLLIVLIPWKKICNKSSSAYTPLKCILKHWNSFDTQTLKKEHLIFFCTRAWPSYQLQDGEAWPPEGSVNINTIQQLDVFCRQEGKWSEVPYVQAFFALRDNPDLCQCCRIDPALLTVTSGKSIDDNSTKSEKQTPREHSDAVPDAPILPVSPIWEPPPATTSTTPVLSSQPPTLLLPLQ
degradation_or_half_life, half_life [1]: decreases, 5 vs about 52
localisation_or_trafficking [2]: decreases
localisation_or_trafficking [3]: decreases

B3: B7-H6: N208Q (protein)
parent chain: MTWRAAASTCAALLILLWALTTEGDLKVEMMAGGTQITPLNDNVTIFCNIFYSQPLNITSMGITWFWKSLTFDKEVKVFEFFGDHQEAFRPGAIVSPWRLKSGDASLRLPGIQLEEAGEYRCEVVVTPLKAQGTVQLEVVASPASRLLLDQVGMKENEDKYMCESSGFYPEAINITWEKQTQKFPHPIEISEDVITGPTIKNMDGTFNVTSCLKLNSSQEDPGTVYQCVVRHASLHTPLRSNFTLTAARHSLSETEKTDNFSIHWWPISFIGVGLVLLIVLIPWKKICNKSSSAYTPLKCILKHWNSFDTQTLKKEHLIFFCTRAWPSYQLQDGEAWPPEGSVNINTIQQLDVFCRQEGKWSEVPYVQAFFALRDNPDLCQCCRIDPALLTVTSGKSIDDNSTKSEKQTPREHSDAVPDAPILPVSPIWEPPPATTSTTPVLSSQPPTLLLPLQ
degradation_or_half_life, half_life [1]: decreases, 15 vs about 52
other: shedding of soluble B7-H6 [4]: increases
other: shedding of soluble B7-H6 [5]: increases
localisation_or_trafficking [2]: decreases
localisation_or_trafficking [3]: decreases
